# Results published in US20230144608A1, “CLEAVABLE LINKERS” (Xilio Development, Inc., priority 2021, published 2023).
# Tests used:
# [1] = system: RCC tumor conditioned media (TCM) and plasma; test: Fluorescence-quencher peptide cleavage screening, RCC tumor conditioned media versus plasma; assay type: biochemical, human; conditions: RCC patients; fluorophore/quencher-labelled peptide
# Description: (§1) In this example, the peptides library was subjected to cleavage screening by biological matrices, i.e., tumor conditioned media (TCM). The cleavage of the peptides library by plasma was performed for comparison. Each peptide in the library includes a fluorescent mark at one end of its sequence and a quencher on the other end of the sequence. Upon cleavage of the peptide, the quencher is separated from the fluorescent mark, thereby releasing the fluorescent mark. The peptide substrates with the highest ratio of (initial rate of cleavage by tumor conditioned media (TCM) - initial rate of cleavage by plasma) in pmol/min, from cancer patients were identified.
# [2] = system: H&N tumor conditioned media (TCM) and plasma; test: Fluorescence-quencher peptide cleavage screening, H&N tumor conditioned media versus plasma; assay type: biochemical, human; conditions: Head and Neck cancer patients; fluorophore/quencher-labelled peptide
# Description: as §1
# MMP-1 = target: T1, MMP-1 (Homo sapiens, UniProt P03956); test: Cleavage by recombinant protease MMP-1; assay type: biochemical; conditions: initial rate, recombinant MMP-1
# T1 sequence (P03956 100-469): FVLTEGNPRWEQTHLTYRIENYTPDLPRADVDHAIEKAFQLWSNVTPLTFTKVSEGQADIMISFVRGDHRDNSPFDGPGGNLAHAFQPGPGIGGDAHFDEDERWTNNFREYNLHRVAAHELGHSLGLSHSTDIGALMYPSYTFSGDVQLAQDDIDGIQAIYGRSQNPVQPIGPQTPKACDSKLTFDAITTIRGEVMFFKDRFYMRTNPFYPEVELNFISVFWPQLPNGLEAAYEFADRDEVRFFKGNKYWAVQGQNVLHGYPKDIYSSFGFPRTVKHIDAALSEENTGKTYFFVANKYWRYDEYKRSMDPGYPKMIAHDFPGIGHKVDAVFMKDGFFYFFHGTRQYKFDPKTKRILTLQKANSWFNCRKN
# Description: as §1
# (§2) The peptides with high ratio of initial rate of cleavage by tumor conditioned media (TCM) to initial rate of cleavage by plasma were further screened using recombinant proteases. The peptide substrates that have high initial rates (uM/h) of cleavage by recombinant proteases were identified (Table 4).
# MMP-2 = target: T2, MMP-2 (Homo sapiens, UniProt P08253); test: Cleavage by recombinant protease MMP-2; assay type: biochemical; conditions: initial rate, recombinant MMP-2
# T2 sequence (P08253 110-660): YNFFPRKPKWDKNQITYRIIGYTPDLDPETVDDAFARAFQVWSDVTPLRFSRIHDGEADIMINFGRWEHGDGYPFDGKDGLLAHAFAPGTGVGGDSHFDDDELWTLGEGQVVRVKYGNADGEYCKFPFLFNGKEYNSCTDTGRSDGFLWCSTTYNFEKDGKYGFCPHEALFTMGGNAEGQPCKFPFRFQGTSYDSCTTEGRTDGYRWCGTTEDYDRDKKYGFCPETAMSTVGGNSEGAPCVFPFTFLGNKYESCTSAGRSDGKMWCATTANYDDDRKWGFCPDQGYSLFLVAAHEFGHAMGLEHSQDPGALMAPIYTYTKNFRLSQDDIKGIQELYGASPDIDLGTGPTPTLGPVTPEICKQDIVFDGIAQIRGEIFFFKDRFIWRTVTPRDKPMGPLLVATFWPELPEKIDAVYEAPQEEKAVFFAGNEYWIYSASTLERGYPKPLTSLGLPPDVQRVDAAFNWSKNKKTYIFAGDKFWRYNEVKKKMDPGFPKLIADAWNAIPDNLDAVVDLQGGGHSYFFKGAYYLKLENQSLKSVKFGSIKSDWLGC
# Description: as §1, §2
# MMP-7 = target: T3, MMP-7 (Homo sapiens, UniProt P09237); test: Cleavage by recombinant protease MMP-7; assay type: biochemical; conditions: initial rate, recombinant MMP-7
# T3 sequence (P09237 95-267): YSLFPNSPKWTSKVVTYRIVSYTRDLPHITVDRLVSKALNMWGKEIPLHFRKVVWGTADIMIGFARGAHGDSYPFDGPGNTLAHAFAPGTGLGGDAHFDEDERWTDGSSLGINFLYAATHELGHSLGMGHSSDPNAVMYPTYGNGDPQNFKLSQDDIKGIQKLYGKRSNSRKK
# Description: as §1, §2
# MMP-8 = MMP-8 (Homo sapiens, UniProt P22894); test: Cleavage by recombinant protease MMP-8; assay type: biochemical; conditions: initial rate, recombinant MMP-8
# MMP-8, sequence (P22894 101-467): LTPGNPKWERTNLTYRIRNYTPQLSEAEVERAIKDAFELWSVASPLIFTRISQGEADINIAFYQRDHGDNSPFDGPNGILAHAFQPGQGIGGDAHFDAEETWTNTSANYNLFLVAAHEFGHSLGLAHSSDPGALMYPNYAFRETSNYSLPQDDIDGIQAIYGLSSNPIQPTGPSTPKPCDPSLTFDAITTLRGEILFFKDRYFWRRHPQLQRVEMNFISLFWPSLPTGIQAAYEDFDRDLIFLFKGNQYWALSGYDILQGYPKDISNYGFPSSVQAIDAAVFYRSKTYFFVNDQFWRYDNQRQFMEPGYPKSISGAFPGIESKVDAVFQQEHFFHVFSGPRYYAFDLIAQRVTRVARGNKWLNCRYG
# Description: as §1, §2
# MMP-9 = MMP-9 (Homo sapiens, UniProt P14780); test: Cleavage by recombinant protease MMP-9; assay type: biochemical; conditions: initial rate, recombinant MMP-9
# MMP-9, sequence (P14780 94-707): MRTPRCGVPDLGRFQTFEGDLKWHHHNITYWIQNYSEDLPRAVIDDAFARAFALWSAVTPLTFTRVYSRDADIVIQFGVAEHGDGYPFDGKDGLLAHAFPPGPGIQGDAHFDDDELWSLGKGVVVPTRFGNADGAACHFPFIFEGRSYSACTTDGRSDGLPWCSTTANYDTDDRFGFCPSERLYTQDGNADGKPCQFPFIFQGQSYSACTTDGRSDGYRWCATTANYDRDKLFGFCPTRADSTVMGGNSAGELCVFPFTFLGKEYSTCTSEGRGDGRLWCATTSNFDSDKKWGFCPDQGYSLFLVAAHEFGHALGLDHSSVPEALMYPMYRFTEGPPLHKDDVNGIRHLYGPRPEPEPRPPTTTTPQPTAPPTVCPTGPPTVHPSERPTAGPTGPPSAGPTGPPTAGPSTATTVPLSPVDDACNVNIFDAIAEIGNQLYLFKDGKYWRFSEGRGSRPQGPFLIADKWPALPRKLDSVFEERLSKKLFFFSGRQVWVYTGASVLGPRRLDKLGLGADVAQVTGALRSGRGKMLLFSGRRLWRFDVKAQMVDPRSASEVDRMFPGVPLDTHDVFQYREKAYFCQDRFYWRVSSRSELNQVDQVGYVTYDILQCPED
# Description: as §1, §2
# MMP-10 = MMP-10 (Homo sapiens, UniProt P09238); test: Cleavage by recombinant protease MMP-10; assay type: biochemical; conditions: initial rate, recombinant MMP-10
# MMP-10, sequence (P09238 99-476): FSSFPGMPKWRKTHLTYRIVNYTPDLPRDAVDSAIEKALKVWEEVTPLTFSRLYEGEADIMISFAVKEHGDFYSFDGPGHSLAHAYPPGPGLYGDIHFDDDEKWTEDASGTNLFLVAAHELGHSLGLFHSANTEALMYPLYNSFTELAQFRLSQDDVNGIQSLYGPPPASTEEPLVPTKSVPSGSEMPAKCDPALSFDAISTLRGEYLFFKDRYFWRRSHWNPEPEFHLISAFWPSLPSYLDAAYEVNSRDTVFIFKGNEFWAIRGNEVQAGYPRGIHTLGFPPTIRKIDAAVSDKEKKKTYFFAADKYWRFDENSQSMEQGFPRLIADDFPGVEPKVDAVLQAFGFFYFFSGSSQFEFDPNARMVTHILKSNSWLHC
# Description: as §1, §2
# MMP-14 = MMP-14 (Homo sapiens, UniProt P50281); test: Cleavage by recombinant protease MMP-14; assay type: biochemical; conditions: initial rate, recombinant MMP-14
# Description: as §1, §2
# CatB = CatB (Homo sapiens, UniProt P07858); test: Cleavage by recombinant protease Cathepsin B; assay type: biochemical; conditions: initial rate
# Description: as §1, §2
# [3] = system: 'NAT' (Normal Adjacent Tissue) culture supernatant; test: Cleavage of synthetic peptides in NAT culture supernatant (MSP-MS); assay type: biochemical; conditions: for Earliest cleaved time point -NAT: NAT culture supernatant, MSP-MS; for NAT + CFZ: cleavage in NAT culture supernatant, carfilzomib (CFZ) in the incubation media, given as fraction x/5
# Description: (§3) Sequences comprising cleavage peptides […] (SEQ ID NO: 1) or […] (SEQ ID NO:2) (shown in bold below) were incubated in either ‘NAT’ (Normal Adjacent Tissue) or ‘RCC’ (Renal Cell Carcinoma) culture supernatants, to test the specificity of each peptide’s cleavage. Carfilzomib (CFZ) is also included in the incubation media as an inhibitor of proteosome, to inhibit false positive cleavage.
# (§4) To this end, peptide sequencing by mass spectrometry was used to identify cleaved fragments produced for the synthetic peptides shown in the table below, using a published technique called multiplexed substrate profiling by mass spectrometry (MSP-MS) (O’Donoghue A.J. et al. Nat Methods. 2012 Nov;9(11):1095-100.) Cleavages were monitored in these reactions over time, and the peptides found to be cleaved in the earliest time points were deemed to be most sensitive to proteolytic activity in the conditioned media samples.
# [4] = system: 'RCC' (Renal Cell Carcinoma) culture supernatant; test: Cleavage of synthetic peptides in RCC culture supernatant (MSP-MS); assay type: biochemical; conditions: for Earliest cleaved time point -RCC: RCC culture supernatant, MSP-MS; for RCC + CFZ: cleavage in RCC culture supernatant, carfilzomib (CFZ) in the incubation media, given as fraction x/5
# Description: as §3, §4
# [5] = patients who received a 5-minute intravenous (IV) infusion; product label; cited from earlier work
Substance,"Rates of cleavage by recombinant proteases, MMP-1 (MMP-1)","Rates of cleavage by recombinant proteases, MMP-2 (MMP-2)","Rates of cleavage by recombinant proteases, MMP-7 (MMP-7)","Rates of cleavage by recombinant proteases, MMP-8 (MMP-8)","Rates of cleavage by recombinant proteases, MMP-9 (MMP-9)","Rates of cleavage by recombinant proteases, MMP-10 (MMP-10)","Rates of cleavage by recombinant proteases, MMP-14 (MMP-14)","Rates of cleavage by recombinant proteases, CatB (CatB)",Initial cleavage rate in tumor conditioned media minus initial cleavage rate in plasma [1],"Initial cleavage rate difference, tumor conditioned media minus plasma [2]",Earliest cleaved time point -NAT [3],NAT + CFZ [3],Earliest cleaved time point -RCC [4],RCC + CFZ [4],half-life [5]
"APAGLIVPYN [proteolytically cleavable peptide (CP), protease substrate]",0.0 µM/h,29.6 µM/h,2.4 µM/h,0.5 µM/h,1.8 µM/h,1.6 µM/h,2.1 µM/h,1.0 µM/h,0.2 pmol/min,0.1 pmol/min,–,–,–,–,–
"IVGRPRHQGV [proteolytically cleavable peptide (CP), protease substrate]",0.0 µM/h,0.0 µM/h,0.0 µM/h,0.0 µM/h,0.0 µM/h,0.0 µM/h,0.0 µM/h,1.9 µM/h,0.6 pmol/min,0.1 pmol/min,–,–,–,–,–
"RQGGM*PKDLYHA*SAKQ (RQGGMPKDLYHASAKQ) [Alu-XT-091, * indicates cleavage site]",–,–,–,–,–,–,–,–,–,–,5 min,1/5,15 min,5/5,–
"RVGPVSL*R*SGSGKI (RVGPVSLRSGSGKI) [Alu-XT-019, * indicates cleavage site]",–,–,–,–,–,–,–,–,–,–,5 min,1/5,15 min,5/5,–
aldesleukin,–,–,–,–,–,–,–,–,–,–,–,–,–,–,1.42 h

# Second part, led by results:
"Rates of cleavage by recombinant proteases, MMP-1 (MMP-1)","Rates of cleavage by recombinant proteases, MMP-2 (MMP-2)","Rates of cleavage by recombinant proteases, MMP-7 (MMP-7)","Rates of cleavage by recombinant proteases, MMP-8 (MMP-8)","Rates of cleavage by recombinant proteases, MMP-9 (MMP-9)","Rates of cleavage by recombinant proteases, MMP-10 (MMP-10)","Rates of cleavage by recombinant proteases, MMP-14 (MMP-14)","Rates of cleavage by recombinant proteases, CatB (CatB)",Substance,Initial cleavage rate in tumor conditioned media minus initial cleavage rate in plasma [1],"Initial cleavage rate difference, tumor conditioned media minus plasma [2]",Earliest cleaved time point -NAT [3],NAT + CFZ [3],Earliest cleaved time point -RCC [4],RCC + CFZ [4],half-life [5]
2.7 µM/h,31.2 µM/h,2.5 µM/h,7.2 µM/h,8.8 µM/h,1.8 µM/h,0.7 µM/h,0.0 µM/h,"PANLVAPDP [proteolytically cleavable peptide (CP), protease substrate]",0.1 pmol/min,0.4 pmol/min,–,–,–,–,–
0.0 µM/h,1.9 µM/h,0.2 µM/h,0.1 µM/h,6.5 µM/h,0.0 µM/h,0.0 µM/h,0.0 µM/h,"PVSLRSGS [proteolytically cleavable peptide (CP), protease substrate]",0.2 pmol/min,0.0 pmol/min,–,–,–,–,–
0.1 µM/h,1.1 µM/h,0.2 µM/h,0.2 µM/h,0.2 µM/h,0.0 µM/h,0.0 µM/h,0.3 µM/h,"RPLALWRS [proteolytically cleavable peptide (CP), protease substrate]",0.5 pmol/min,0.0 pmol/min,–,–,–,–,–
0.0 µM/h,0.0 µM/h,0.0 µM/h,0.0 µM/h,0.0 µM/h,0.0 µM/h,0.0 µM/h,1.9 µM/h,"RSKYLATA [proteolytically cleavable peptide (CP), protease substrate]",0.3 pmol/min,0.0 pmol/min,–,–,–,–,–
0.0 µM/h,11.8 µM/h,1.8 µM/h,0.1 µM/h,0.3 µM/h,0.0 µM/h,0.1 µM/h,0.3 µM/h,"TQKPLGLS [proteolytically cleavable peptide (CP), protease substrate]",0.2 pmol/min,0.2 pmol/min,–,–,–,–,–
